Assay [1] addresses T1, Anti-CD28 Fab (SEQ ID NOs: 696, 697).
T1 construct: In the phage ELISA the Fab was biotinylated and captured on neutravidin coated plates
Briefly: phage binding ELISA with the Fab-coated wells pre-incubated with CD28 antigen (competitor: CD28), anti-M13 HRP detection.
T1 sequence (VH, as listed by the source, chain 1 of 2): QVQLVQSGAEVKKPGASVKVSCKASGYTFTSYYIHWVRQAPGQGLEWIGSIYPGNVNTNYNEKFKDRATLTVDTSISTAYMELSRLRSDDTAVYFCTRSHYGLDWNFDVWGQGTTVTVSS
T1 sequence (VL, as listed by the source, chain 2 of 2): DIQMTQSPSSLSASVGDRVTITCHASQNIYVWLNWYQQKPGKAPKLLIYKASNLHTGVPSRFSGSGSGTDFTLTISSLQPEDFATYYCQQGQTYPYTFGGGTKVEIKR
Protocol: (§1) After panning, phage infected bacteria were plated out and colonies picked into 96 well blocks. Clonal phage was then amplified and separated from bacterial cells via centrifugation.
(§2) Clonal phage were harvested as crude supematants and screened via standard ELISAs. […] Prior to the addition of clonal phage, wells were incubated with blocking buffer and CD28 antigen or blocking buffer alone. Without washing or aspirating, clonal phage supematants were then added to the wells and incubated for a short time. Wells were then washed followed by detection of bound phage using a horse radish conjugated anti-M13 antibody. Clonal phage of interest were then sent for sequence analysis.

Assay [2] has the same target. Briefly: phage binding ELISA; biotinylated anti-CD28 Fab on neutravidin plate, clonal phage supernatant, anti-M13 HRP detection. On the technique in general: ELISA stands for enzyme-linked immunosorbent assay.
Target sequence in this assay (VH, as listed by the source, chain 1 of 2): as the sequence (VH, as listed by the source, chain 1 of 2) above
Target sequence in this assay (VL, as listed by the source, chain 2 of 2): as the sequence (VL, as listed by the source, chain 2 of 2) above
The target of assay [3] is Anti-CD28 Fab (SEQ ID NOs: 696, 697). Briefly: phage binding ELISA; biotinylated anti-CD28 Fab on neutravidin plate, clonal phage supernatant, anti-M13 HRP.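 Further: crude clonal phage supernatants screened after wells were preincubated either with CD28 antigen in blocking buffer or with blocking buffer only, phage added without washing.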
Target sequence in this assay (VH, as listed by the source, chain 1 of 2): as the sequence (VH, as listed by the source, chain 1 of 2) above
Target sequence in this assay (VL, as listed by the source, chain 2 of 2): as the sequence (VL, as listed by the source, chain 2 of 2) above
Protocol: as §1, §2
Assay [4] has the same target. Briefly: phage binding ELISA on captured anti-CD28 Fab; competitor CD28 antigen pre-incubated in the wells.
Target sequence in this assay (VH, as listed by the source, chain 1 of 2): as the sequence (VH, as listed by the source, chain 1 of 2) above
Target sequence in this assay (VL, as listed by the source, chain 2 of 2): as the sequence (VL, as listed by the source, chain 2 of 2) above
Protocol: as §1, §2
Assay [5] has as its target T2, Anti-CD28 Fab (SEQ ID NOs: 696, 697).
T2 construct: Biotinylated and captured on neutravidin coated plates in the phage ELISA
Briefly: phage ELISA on captured anti-CD28 Fab, wells first incubated with CD28 antigen (competitor).
T2 sequence (VH, as listed by the source, chain 1 of 2): as the sequence (VH, as listed by the source, chain 1 of 2) above
T2 sequence (VL, as listed by the source, chain 2 of 2): as the sequence (VL, as listed by the source, chain 2 of 2) above
Protocol: as §1, §2

Assay [6] shares this target. Briefly: phage ELISA, clonal phage on biotinylated anti-CD28 Fab captured on neutravidin, anti-M13-HRP detection.
Target sequence in this assay (VH, as listed by the source, chain 1 of 2): as the sequence (VH, as listed by the source, chain 1 of 2) above
Target sequence in this assay (VL, as listed by the source, chain 2 of 2): as the sequence (VL, as listed by the source, chain 2 of 2) above
Protocol: as §1, §2
The target in assay [7] is T3, Anti-CD28 Fab (SEQ ID NOs: 696, 697).
T3 construct: Biotinylated and captured on neutravidin coated plates in the phage ELISA
Briefly: phage ELISA, clonal phage on biotinylated anti-CD28 Fab captured on neutravidin plates.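 Further: crude clonal phage supernatants added to wells pretreated with CD28 antigen or with blocking buffer only, bound phage detected by HRP-linked anti-M13 antibody.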
Protocol: as §1, §2

Assay [8] shares this target. Briefly: phage ELISA on captured anti-CD28 Fab, wells pre-incubated with CD28 antigen as competitor.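 Further: crude clonal phage supernatants added without washing, bound phage read out by HRP-coupled anti-M13 antibody, reference wells given blocking buffer only instead of CD28.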
Protocol: as §1, §2

Where no end group is shown, it is not given here.

The source of these data is patent US20260242478A1 (published 2026).

For the molecule YCEGHAEQYMEKCL [Phage-1162], the “Anti-CD28 Fab signal in the presence of CD28 (phage binding ELISA)” value in assay [1] was found to be 0.08. The “Anti-CD28 Fab signal (phage binding ELISA)” value in assay [2] is 1.17.

B1: Phage-1173 (peptide)
peptide: YCDGHLQMYMMKCL
modifications: cysteine pairing not given here; also: displayed on phage by fusion to pIII, linker and pIII sequence not given here
notes: Clonal phage of the Peptide-87 library; not shown: fused to the pIII filament of the bacteriophage
Take B1: the “Anti-CD28 Fab (SEQ ID NOs: 696, 697) signal” value in assay [3] is 1.14. Further, the “Anti-CD28 Fab signal in the presence of CD28” value in assay [4] is 0.07.
Take YCEGHIGIYMSKCL [Phage-1143]: the “Anti-CD28 Fab signal in the presence of CD28 (phage binding ELISA)” value in assay [5] was found to be 0.07. Moreover, the “Anti-CD28 Fab signal (phage binding ELISA)” value in assay [6] was found to be 1.23.
With YCEGHRAEYMSKCL [Phage-1165], the “Anti-CD28 Fab signal in the presence of CD28 (phage binding ELISA)” value in assay [1] amounted to 0.09. Further, the “Anti-CD28 Fab signal (phage binding ELISA)” value in assay [2] came out at 1.16.
On to YCEGHLAEYMNKCL [Phage-1140], for which the “Anti-CD28 Fab signal (phage binding ELISA)” value in assay [7] came out at 1.24. Further, in assay [8], the “Anti-CD28 Fab signal in the presence of CD28 (phage binding ELISA)” value was determined as 0.07.
YCEGHAAEYLWKCL [Phage-1154]: the “Anti-CD28 Fab signal in the presence of CD28 (phage binding ELISA)” value in assay [5] was found to be 0.09. The “Anti-CD28 Fab signal (phage binding ELISA)” value in assay [6] came out at 1.18.

B2: Phage-1172 (peptide)
peptide: YCDGHEQQYMEKCL
modifications: cysteine pairing not given here; also: displayed on phage by fusion to pIII, linker and pIII sequence not given here
notes: as for B1
With B2, in assay [3], the “Anti-CD28 Fab (SEQ ID NOs: 696, 697) signal” value was 1.14. The “Anti-CD28 Fab signal in the presence of CD28” value in assay [4] turned out to be 0.06.
Regarding YCDGHSWEYLGKCL [Phage-1153], the “Anti-CD28 Fab signal in the presence of CD28 (phage binding ELISA)” value in assay [5] was determined as 0.05. In addition, the “Anti-CD28 Fab signal (phage binding ELISA)” value in assay [6] amounted to 1.2.
In the case of YCDGHVEEYMTKCL [Phage-1141], the “Anti-CD28 Fab signal (phage binding ELISA)” value in assay [7] came to 1.24. Also, the “Anti-CD28 Fab signal in the presence of CD28 (phage binding ELISA)” value in assay [8] amounted to 0.07.
As to YCEGHAGVYMAKCL [Phage-1157], in assay [1], the “Anti-CD28 Fab signal in the presence of CD28 (phage binding ELISA)” value is 0.05. Also, the “Anti-CD28 Fab signal (phage binding ELISA)” value in assay [2] is 1.17.
The matching figures for YCDGHLSVYMSKCL [Phage-1167]: 0.07 and 1.15.
Regarding YCVGHYPEYMEKCL [Phage-1147], in assay [5], the “Anti-CD28 Fab signal in the presence of CD28 (phage binding ELISA)” value came to 0.07. Besides, in assay [6], the “Anti-CD28 Fab signal (phage binding ELISA)” value was found to be 1.22.
Taken in the same sequence, the figures for YCDGHRPEYMSKCL [Phage-1155] were 0.07 and 1.18.
As to YCDGHEARYMQKCL [Phage-1148], the “Anti-CD28 Fab signal in the presence of CD28 (phage binding ELISA)” value in assay [5] stood at 0.07. The “Anti-CD28 Fab signal (phage binding ELISA)” value in assay [6] worked out at 1.21.
YCEGHSYQYMQKCL [Phage-1164]: the “Anti-CD28 Fab signal in the presence of CD28 (phage binding ELISA)” value in assay [1] turned out to be 0.06. The “Anti-CD28 Fab signal (phage binding ELISA)” value in assay [2] is 1.16.
With YCHGHLPQYMSKCM [Phage-1150], the “Anti-CD28 Fab signal in the presence of CD28 (phage binding ELISA)” value in assay [5] was 0.06. In assay [6], the “Anti-CD28 Fab signal (phage binding ELISA)” value is 1.21.
The matching figures for YCAGHLDIYLAKCL [Phage-1151]: 0.07 and 1.21.

B3: Phage-1169 (peptide)
peptide: YCEGHVAEYRAKCL
modifications: cysteine pairing not given here; also: displayed on phage by fusion to pIII, linker and pIII sequence not given here
notes: as for B1
For B3, in assay [3], the “Anti-CD28 Fab (SEQ ID NOs: 696, 697) signal” value was 1.15. Also, the “Anti-CD28 Fab signal in the presence of CD28” value in assay [4] stood at 0.09.
As for YCEGHLKEYMQKCL [Phage-1163], the “Anti-CD28 Fab signal in the presence of CD28 (phage binding ELISA)” value in assay [1] was 0.07. In addition, the “Anti-CD28 Fab signal (phage binding ELISA)” value in assay [2] is 1.17.
Taken in the same sequence, the figures for YCDGHSWIYMVKCL [Phage-1166] were 0.06 and 1.16.
Turning to YCEGHSTEYIQKCL [Phage-1144], in assay [5], the “Anti-CD28 Fab signal in the presence of CD28 (phage binding ELISA)” value is 0.09. Further, the “Anti-CD28 Fab signal (phage binding ELISA)” value in assay [6] is 1.23.
In the case of YCAGHAPEYISKCL [Phage-1152], in assay [5], the “Anti-CD28 Fab signal in the presence of CD28 (phage binding ELISA)” value came to 0.07. Moreover, the “Anti-CD28 Fab signal (phage binding ELISA)” value in assay [6] came out at 1.21.
YCEGHLPQYMSKCL [Phage-1168]: in assay [1], the “Anti-CD28 Fab signal in the presence of CD28 (phage binding ELISA)” value was 0.09. For the same molecule, the “Anti-CD28 Fab signal (phage binding ELISA)” value in assay [2] stood at 1.15.
In the case of YCEGHSAEHMPKCL [Phage-1146], the “Anti-CD28 Fab signal in the presence of CD28 (phage binding ELISA)” value in assay [5] was determined as 0.09. Moreover, in assay [6], the “Anti-CD28 Fab signal (phage binding ELISA)” value amounted to 1.23.

B4: Phage-1171 (peptide)
peptide: YCEGHAAAYMGKCL
modifications: cysteine pairing not given here; also: displayed on phage by fusion to pIII, linker and pIII sequence not given here
notes: as for B1
As to B4, the “Anti-CD28 Fab (SEQ ID NOs: 696, 697) signal” value in assay [3] worked out at 1.14. Besides, the “Anti-CD28 Fab signal in the presence of CD28” value in assay [4] was 0.08.
Regarding YCDGHSQEYMSKCL [Phage-1149], the “Anti-CD28 Fab signal in the presence of CD28 (phage binding ELISA)” value in assay [5] worked out at 0.06. Further, the “Anti-CD28 Fab signal (phage binding ELISA)” value in assay [6] amounted to 1.21.
Consider YCDGHLEQYMLKCL [Phage-1142], for which, in assay [7], the “Anti-CD28 Fab signal (phage binding ELISA)” value was found to be 1.24. Also, the “Anti-CD28 Fab signal in the presence of CD28 (phage binding ELISA)” value in assay [8] is 0.09.
Take YCDGHSMMYMQKCL [Phage-1145]: in assay [5], the “Anti-CD28 Fab signal in the presence of CD28 (phage binding ELISA)” value turned out to be 0.06. The “Anti-CD28 Fab signal (phage binding ELISA)” value in assay [6] turned out to be 1.23.
As for YCEGHMPEYLAKCL [Phage-1156], the “Anti-CD28 Fab signal in the presence of CD28 (phage binding ELISA)” value in assay [1] came to 0.07. In assay [2], the “Anti-CD28 Fab signal (phage binding ELISA)” value turned out to be 1.18.

B5: Phage-1174 (peptide)
peptide: YCEGHLYEYMWKCL
modifications: cysteine pairing not given here; also: displayed on phage by fusion to pIII, linker and pIII sequence not given here
notes: as for B1
In the case of B5, in assay [3], the “Anti-CD28 Fab (SEQ ID NOs: 696, 697) signal” value was found to be 1.13. Besides, the “Anti-CD28 Fab signal in the presence of CD28” value in assay [4] is 0.07.
Turning to YCAGHSSEYIGKCL [Phage-1159], the “Anti-CD28 Fab signal in the presence of CD28 (phage binding ELISA)” value in assay [1] turned out to be 0.06. In addition, in assay [2], the “Anti-CD28 Fab signal (phage binding ELISA)” value was 1.17.

B6: Phage-1170 (peptide)
peptide: YCQGHLPQYIEKCL
modifications: cysteine pairing not given here; also: displayed on phage by fusion to pIII, linker and pIII sequence not given here
notes: as for B1
Consider B6, for which the “Anti-CD28 Fab (SEQ ID NOs: 696, 697) signal” value in assay [3] stood at 1.14. Also, the “Anti-CD28 Fab signal in the presence of CD28” value in assay [4] was found to be 0.06.
Consider YCEGHSQTYMWKCL [Phage-1158], for which, in assay [1], the “Anti-CD28 Fab signal in the presence of CD28 (phage binding ELISA)” value turned out to be 0.08. Moreover, the “Anti-CD28 Fab signal (phage binding ELISA)” value in assay [2] is 1.17.
On to YCEGHSQQYMWKCL [Phage-1160], for which, in assay [1], the “Anti-CD28 Fab signal in the presence of CD28 (phage binding ELISA)” value is 0.05. Besides, the “Anti-CD28 Fab signal (phage binding ELISA)” value in assay [2] was 1.17.
As for YCDGHLPDYMAKCL [Phage-1161], the “Anti-CD28 Fab signal in the presence of CD28 (phage binding ELISA)” value in assay [1] was found to be 0.07. In assay [2], the “Anti-CD28 Fab signal (phage binding ELISA)” value was 1.17.
